According to article PMC6793842:

B1: unnamed (parent)
chain 1: FENAIKKTKNQENNLTLLPIKSTEEEKDDIKNGKDIKKEIDNDKENIKTNNAKDHSTYIKSYLNTNVNDGLKYLFIPSHNSFIKKYSVFNQINDGMLLNEKNDVKNNEDYKNVDYKNVNFLQYDFKELSNYNIANSIDILQEKEGHLDFVIIPHYTFLDYYKHLSYNSIYHKYSTHGKYIAVDAFIKKINERYDQVKSKCNDIKNDLIATIKKLEHPYDINNKNDDSYRYDISEEIDDKSEETDDETEEVEDSIQDTDSNHTPSNKKKNDLMNRTFKKMMDEYNTKKKKLIKCIKNHENDFNKICMDMKNYGTNLFEQLSCYNNNFCNTNGIRYHYDEYIHKLILSVKSKNLNKDLSDMTNILQQSELLLTNLNKKMGSYIYIDTIKFIHKEMKHIFNRIEYHTKIINDKTKIIQDKIKLNIWRTFQKDELLKRILDMSNEYSLFITSDHLRQMLYNTFYSKEKHLNNIFHHLIYVLQMKFNDVPIKMEYFQTYKKNKPLTQ
chain 2: EPGTVFTTVEDLGSKILLTCSLNDSATEVTGHRWLKGGVVLKEDALPGQKTEFKVDSDDQWGEYSCVFLPEPMGTANIQLHGPPRVKAVKSSEHINEGETAMLVCKSESVPPVTDWAWYKITDSEDKALMNGSESRFFVSSSQGRSELHIENLNMEADPGQYRCNGTSSKGSDQAIITLRVRSHLAAL

Variants of: B1
Experiment: SPR
Conditions: read off a plot; for response (response units): with partner chain of the complex shown, plateau of the highest curve of four 2-fold serial dilutions (600 to 75 nM); for screen value: with partner chain of the complex shown;

chain 1 R192T
response (response units): 180
screen value: 2.3 s

chain 1 H176Y
response (response units): 340
screen value: 2.4 s

chain 1 Y179C
response (response units): 130
screen value: 1.5 s

chain 1 Y173S
response (response units): 260
screen value: 2.3 s

chain 1 Q195K
response (response units): 360
screen value: 2.4 s

chain 1 D124H
response (response units): 220
screen value: 2.6 s
